Data set [1] concerns the target T1, LRH-1 (hLRH-1, NR5A2) (Homo sapiens, UniProt O00482 O00482:1-541). In words: EMSA; no complex. As to conditions: tags: none stated; TNT-T7 rabbit reticulocyte lysate, vector pCI-hLRH-1; label: 32P. As to the method:
(§1) 2 μl of rabbit reticulocyte lysate programmed by hLRH-1 were incubated for 15 minutes at room temperature in a final volume of 20 μl of buffer containing 10 mM HEPES, 2.5 mM MgCl₂, 10% glycerol, 2.5 mg/ml BSA, 50 mM NaCl and 0.5 mM DTT with 2.5 μg of polydl-dC and 1 μg of herring sperm DNA in the presence of the labelled double-stranded oligonucleotides (0.5 ng). The complexes were then separated by non-denaturing gel electrophoresis in TBE 0.25X buffer.
(§2) In contrast, no complex was detected in the presence of labelled double-stranded oligonucleotide corresponding to the mutated response element (hCyp7a mut). […] On the other hand, a specific LRH-1/DNA complex formed with a labelled double-stranded oligonucleotide corresponding to fragment −144/−122 (LRHRE_ApoA1_h_{—}7) of the human apo AI gene promoter. Said fragment straddles regions B and C of the human apo AI promoter and contains, on the antisense strand, the sequence TCAAGGATC similar to the consensus sequence TCAAGGTCA of an LRH-1 response element.
(In EMSA bound probe runs differently from free probe, usually more slowly.)

Data set [2] deals with T1, LRH-1 (hLRH-1, NR5A2). In words: EMSA; specific complex; low affinity site, as competitor only partially displaces Cyp7a probe (FIG. 4A). As to conditions: tags: none stated; TNT-T7 rabbit reticulocyte lysate, vector pCI-hLRH-1; label: 32P. As to the method: as §1, §2
The target in data set [3] is T2, FXR (UniProt Q96RI1 Q96RI1:1-486).
T2 sequence: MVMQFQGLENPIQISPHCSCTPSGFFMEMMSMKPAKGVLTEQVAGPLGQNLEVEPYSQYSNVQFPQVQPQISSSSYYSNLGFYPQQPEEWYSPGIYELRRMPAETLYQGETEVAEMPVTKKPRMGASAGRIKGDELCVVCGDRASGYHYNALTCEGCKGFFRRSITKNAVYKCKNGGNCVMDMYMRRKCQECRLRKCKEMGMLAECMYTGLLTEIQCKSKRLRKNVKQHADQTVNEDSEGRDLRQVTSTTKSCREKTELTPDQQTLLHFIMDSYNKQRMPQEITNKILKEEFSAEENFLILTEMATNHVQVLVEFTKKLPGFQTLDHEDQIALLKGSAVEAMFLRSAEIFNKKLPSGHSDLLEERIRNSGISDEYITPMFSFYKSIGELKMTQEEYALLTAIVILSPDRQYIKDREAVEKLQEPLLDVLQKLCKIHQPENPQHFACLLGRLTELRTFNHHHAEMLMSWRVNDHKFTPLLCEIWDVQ
The data set is described as follows: EMSA; no complex. As to conditions: tags: none stated; TNT-T7 rabbit reticulocyte lysate, vector pCDNA3-FXR; label: 32P.

Data set [4] has as its target T2, FXR. The data set is described as follows: EMSA; specific complex. As to conditions: tags: none stated; TNT-T7 rabbit reticulocyte lysate, vector pCDNA3-FXR; label: 32P.
For data set [5], the target named is T1, LRH-1 (hLRH-1, NR5A2). The data set is described as follows: EMSA; specific complex. As to conditions: tags: none stated; TNT-T7 rabbit reticulocyte lysate, vector pCI-hLRH-1; label: 32P.
Data set [6] has as its target T1, LRH-1 (hLRH-1, NR5A2). In words: EMSA; 2.5 mM MgCl2, 50 mM NaCl, room temperature; higher affinity than apo AI -144/-122 by competition (Example 4). As to conditions: tags: none stated; TNT-T7 rabbit reticulocyte lysate, vector pCI-hLRH-1; label: 32P. As to the method: as §1, §2
For data set [7], the target named is T1, LRH-1 (hLRH-1, NR5A2). In words: EMSA; no complex; also no displacement as competitor (FIG. 4B). As to conditions: tags: none stated; TNT-T7 rabbit reticulocyte lysate, vector pCI-hLRH-1; label: 32P. As to the method: as §1, §2
The target of data set [8] is T1, LRH-1 (hLRH-1, NR5A2). In words: EMSA; no complex; no displacement as competitor (FIG. 4A). As to conditions: tags: none stated; TNT-T7 rabbit reticulocyte lysate, vector pCI-hLRH-1; label: 32P. How it is done:
as §1, §2

Data set [9] addresses T2, FXR. In words: EMSA; complex lost. As to conditions: tags: none stated; TNT-T7 rabbit reticulocyte lysate, vector pCDNA3-FXR; label: 32P.
Data set [10] concerns the target T1, LRH-1 (hLRH-1, NR5A2). In words: EMSA; FXR site mutation does not affect LRH-1 binding. As to conditions: tags: none stated; TNT-T7 rabbit reticulocyte lysate, vector pCI-hLRH-1; label: 32P.

T1 sequence (O00482 whole entry, one chain of several): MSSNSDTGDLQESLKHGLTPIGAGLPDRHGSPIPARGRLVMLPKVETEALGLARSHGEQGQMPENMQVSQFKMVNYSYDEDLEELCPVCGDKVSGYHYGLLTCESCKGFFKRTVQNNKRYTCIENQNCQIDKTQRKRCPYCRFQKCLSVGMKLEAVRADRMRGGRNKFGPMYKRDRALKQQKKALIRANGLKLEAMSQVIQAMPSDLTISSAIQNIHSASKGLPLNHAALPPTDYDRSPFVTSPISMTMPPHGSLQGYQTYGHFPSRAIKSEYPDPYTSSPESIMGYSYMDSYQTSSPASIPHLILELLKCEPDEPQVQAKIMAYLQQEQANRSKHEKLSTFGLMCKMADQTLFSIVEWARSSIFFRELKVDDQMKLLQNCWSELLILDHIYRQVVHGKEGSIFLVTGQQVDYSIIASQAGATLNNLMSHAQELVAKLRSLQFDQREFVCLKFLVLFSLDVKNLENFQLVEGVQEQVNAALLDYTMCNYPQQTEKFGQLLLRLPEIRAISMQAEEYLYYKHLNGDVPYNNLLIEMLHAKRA

B1: LRHRE_ApoA1_h_8 (-180/-158) (dsDNA)
DNA 1: GATCCAGCTTGCTGTTTGCCCACTCTATA
DNA 2: GATCTATAGAGTGGGCAAACAGCAAGCTG
As to B1, the binding result with LRH-1 (hLRH-1, NR5A2) [1] is “no binding”.

B2: LRHRE_ApoA1_h_5 (-191/-171) (dsDNA)
DNA 1: GATCCGCAGCCCCCGCAGCTTGCTGTA
DNA 2: GATCTACAGCAAGCTGCGGGGGCTGCG
Turning to B2, the binding result with LRH-1 (hLRH-1, NR5A2) [1] is on record as “no binding”.

B3: LRHRE_ApoA1_h_7 (-144/-122) (dsDNA)
DNA 1: GATCCGGGACAGAGCTGATCCTTGAACTA
DNA 2: GATCTAGTTCAAGGATCAGCTCTGTCCCG
In the case of B3, the binding result was “binds” with LRH-1 (hLRH-1, NR5A2) [2] and “no binding” with FXR [3].

B4: LRHRE_ApoA1_h_6 (-178/-145) (dsDNA)
DNA 1: GATCCTTGCCCACTCTATTTGCCCAGCCCCAA
DNA 2: GATCTTGGGGCTGGGCAAATAGAGTGGGCAAG
Take B4: in the data set with LRH-1 (hLRH-1, NR5A2) [1], the binding result is listed as “no binding”.

B5: FXRRE_ApoA1_h_1 (dsDNA)
DNA 1: CAGAGCTGATCCTTGAACTCTTAAGTT
DNA 2: AACTTAAGAGTTCAAGGATCAGCTCTG
As for B5, the binding result is recorded as “binds” with FXR [4] and “binds” with LRH-1 (hLRH-1, NR5A2) [5].

B6: hCyp7a wt (dsDNA)
DNA 1: GATCTCTTAGTTCAAGGCCAGTTAG
DNA 2: GATCCTAACTGGCCTTGAACTAAGA
As to B6, the binding result with LRH-1 (hLRH-1, NR5A2) [6] was “binds”.

B7: hCyp7a mut (dsDNA)
DNA 1: GATCTCTTAGTTCAATTCCAGTTAG
DNA 2: GATCCTAACTGGAATTGAACTAAGA
Regarding B7, the binding result with LRH-1 (hLRH-1, NR5A2) [7] was “no binding”.

B8: LRHRE_ApoA1 mut (dsDNA)
DNA 1: GATCCGGGACAGAGCTGATTGTTGAACTA
DNA 2: GATCTAGTTCAACAATCAGCTCTGTCCCG
For B8, the binding result with LRH-1 (hLRH-1, NR5A2) [8] is on record as “no binding”; in the data set with FXR [3], “no binding”.

B9: FXRRE_ApoA1_h_1_mut (dsDNA)
DNA 1: CAGAGCTGATCCTTGAAGTGTTAAGTT
DNA 2: AACTTAACACTTCAAGGATCAGCTCTG
In the case of B9, the binding result with FXR [9] is “no binding”; in the data set with LRH-1 (hLRH-1, NR5A2) [10] it was “binds”.
